Assay results published in publication PMC4520738.

Target: hDNMT1 351-1600 R582E (Homo sapiens, UniProt P26358 351-1600, R582E)
Assay: EMSA

Sequence of hDNMT1 351-1600 R582E (P26358 351-1600 R582E): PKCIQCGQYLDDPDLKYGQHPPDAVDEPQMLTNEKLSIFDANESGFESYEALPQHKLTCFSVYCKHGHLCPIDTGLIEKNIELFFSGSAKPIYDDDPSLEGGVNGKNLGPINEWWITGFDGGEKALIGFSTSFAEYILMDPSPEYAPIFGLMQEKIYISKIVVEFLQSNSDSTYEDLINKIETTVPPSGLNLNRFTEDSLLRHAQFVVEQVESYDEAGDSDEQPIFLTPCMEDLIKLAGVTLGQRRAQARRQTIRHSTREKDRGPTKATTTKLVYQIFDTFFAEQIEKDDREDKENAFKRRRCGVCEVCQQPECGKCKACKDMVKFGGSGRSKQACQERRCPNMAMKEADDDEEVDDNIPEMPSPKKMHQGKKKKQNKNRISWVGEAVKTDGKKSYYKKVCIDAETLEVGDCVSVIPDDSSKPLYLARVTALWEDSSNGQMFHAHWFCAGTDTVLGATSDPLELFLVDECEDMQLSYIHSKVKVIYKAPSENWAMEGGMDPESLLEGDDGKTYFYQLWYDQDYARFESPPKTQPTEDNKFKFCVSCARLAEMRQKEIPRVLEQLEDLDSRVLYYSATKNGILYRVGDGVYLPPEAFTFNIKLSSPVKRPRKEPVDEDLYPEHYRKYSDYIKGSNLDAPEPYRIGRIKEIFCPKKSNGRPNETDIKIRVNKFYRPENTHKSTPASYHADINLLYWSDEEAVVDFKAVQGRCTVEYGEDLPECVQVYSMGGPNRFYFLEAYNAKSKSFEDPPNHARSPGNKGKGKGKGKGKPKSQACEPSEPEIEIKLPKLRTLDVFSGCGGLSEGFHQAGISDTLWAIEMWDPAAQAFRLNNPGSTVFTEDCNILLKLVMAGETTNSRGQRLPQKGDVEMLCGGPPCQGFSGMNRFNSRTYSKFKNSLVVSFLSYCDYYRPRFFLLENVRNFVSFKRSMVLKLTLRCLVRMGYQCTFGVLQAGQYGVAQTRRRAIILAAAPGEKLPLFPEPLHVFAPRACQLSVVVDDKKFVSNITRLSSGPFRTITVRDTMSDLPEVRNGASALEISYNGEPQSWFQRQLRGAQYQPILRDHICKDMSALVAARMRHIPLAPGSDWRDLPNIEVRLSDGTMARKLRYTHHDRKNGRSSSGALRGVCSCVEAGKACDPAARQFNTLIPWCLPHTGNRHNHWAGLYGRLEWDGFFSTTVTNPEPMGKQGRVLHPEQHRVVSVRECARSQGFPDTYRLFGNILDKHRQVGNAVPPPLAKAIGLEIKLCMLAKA

B1: 26-mer hemimethylated CpG DNA (dsDNA)
DNA 1: ACACCAAGCCTGCGGAGGCTCACGGA
DNA 2: TCCGTGAGCCTCCGCAGGCTTGGTGT
modifications: 5-methyl-2'-deoxycytidine at position 13 of strand 1 (upper)
B1: binds.
